Experimental data published in the supplement of paper PMC6755084.

B1: minF1; the commonest letter at each place (parent)
chain: GAGACCGCAACTGAAAAGTTGTTATCAGAAATGGATGGGTTGAATTTCTGCACGTAGAAGCAAAAGGC

Variants of: B1
Assay: fraction ligated after 30 min (ligated reads / total reads); higher = more ligase activity
Details: with F1*subA RNA substrate (template-directed ligation), 42 °C
Summary of the method: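 RNAs for minimized ligase ribozyme variants were transcribed with T7 from PCR-amplified oligo-pool templates and purified on gels. Ligated and unligated species were resolved on gels, converted to cDNA with barcoded primers, and read on a MiSeq with core bases filtered at quality ≥30. Fraction ligated per variant is the ratio of ligated reads to total reads.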

Variant	fraction ligated
GAGACCGCAACTGAAAAGTTGTTTTCAGAAATGCATGGGTTGAATTTCTGCACGTAGAAGCAAAAGGC [A24T G34C]	0.00388
GAGACCGCAACTGAAAAGTTGTTTTCAGAAATGAATGGGTTGAATTTCTGCACGTAGAAGCAAAAGGC [A24T G34A]	0.0316
GAGACCGCAACTGAAAAGTTGTTTTCAGAAATGTATGGGTTGAATTTCTGCACGTAGAAGCAAAAGGC [A24T G34T]	0.00322
GAGACCGCAACTGAAAAGTTGTTGTCAGAAATGGATGGGTTGACTTTCTGCACGTAGAAGCAAAAGGC [A24G A44C]	0.00892
GAGACCGCAACTGAAAAGTTGTTGTCAGAAATGGATGGGTTGATTTTCTGCACGTAGAAGCAAAAGGC [A24G A44T]	0.016
GAGACCGCAACTGAAAAGTTGTTGTCAGAAATGGATGGGTTGAGTTTCTGCACGTAGAAGCAAAAGGC [A24G A44G]	0.0186
GAGACCGCAACTGAAAAGTTGTTGTCAGAAATGGATCGGTTGAATTTCTGCACGTAGAAGCAAAAGGC [A24G G37C]	0.000862
GAGACCGCAACTGAAAAGTTGTTGTCAGAAATGGATAGGTTGAATTTCTGCACGTAGAAGCAAAAGGC [A24G G37A]	0.00154
GAGACCGCAACTGAAAAGTTGTTGTCAGAAATGGATTGGTTGAATTTCTGCACGTAGAAGCAAAAGGC [A24G G37T]	0.00318
GAGACCGCAACTGAAAAGTTGTTGTCAGTAATGGATGGGTTGAATTTCTGCACGTAGAAGCAAAAGGC [A24G A29T]	0.116
GAGACCGCAACTGAAAAGTTGTTGTCAGAAAAGGATGGGTTGAATTTCTGCACGTAGAAGCAAAAGGC [A24G T32A]	0.00439
GAGACCGCAACTGAAAAGTTGTTGTCAGAAACGGATGGGTTGAATTTCTGCACGTAGAAGCAAAAGGC [A24G T32C]	0.00122
GAGACCGCAACTGAAAAGTTGTTGTCAGAAAGGGATGGGTTGAATTTCTGCACGTAGAAGCAAAAGGC [A24G T32G]	0.00185
GAGACCGCAACTGAAAAGTTGTTTTTAGAAATGGATGGGTTGAATTTCTGCACGTAGAAGCAAAAGGC [A24T C26T]	0.0111
GAGACCGCAACTGAAAAGTTGTTTTGAGAAATGGATGGGTTGAATTTCTGCACGTAGAAGCAAAAGGC [A24T C26G]	0.0102
GAGACCGCAACTGAAAAGTTGTTTTAAGAAATGGATGGGTTGAATTTCTGCACGTAGAAGCAAAAGGC [A24T C26A]	0.00282
GAGACCGCAACTGAAAAGTTGTTTTCACAAATGGATGGGTTGAATTTCTGCACGTAGAAGCAAAAGGC [A24T G28C]	0.0438
GAGACCGCAACTGAAAAGTTGTTTTCATAAATGGATGGGTTGAATTTCTGCACGTAGAAGCAAAAGGC [A24T G28T]	0.0703
GAGACCGCAACTGAAAAGTTGTTTTCAAAAATGGATGGGTTGAATTTCTGCACGTAGAAGCAAAAGGC [A24T G28A]	0.0366
GAGACCGCAACTGAAAAGTTGTTTTCAGGAATGGATGGGTTGAATTTCTGCACGTAGAAGCAAAAGGC [A24T A29G]	0.00599
GAGACCGCAACTGAAAAGTTGTTTTCAGTAATGGATGGGTTGAATTTCTGCACGTAGAAGCAAAAGGC [A24T A29T]	0.0058
GAGACCGCAACTGAAAAGTTGTTTTCAGCAATGGATGGGTTGAATTTCTGCACGTAGAAGCAAAAGGC [A24T A29C]	0.0116
GAGACCGCAACTGAAAAGTTGTTTTCAGAACTGGATGGGTTGAATTTCTGCACGTAGAAGCAAAAGGC [A24T A31C]	0.00611
GAGACCGCAACTGAAAAGTTGTTTTCAGAATTGGATGGGTTGAATTTCTGCACGTAGAAGCAAAAGGC [A24T A31T]	0.00682
GAGACCGCAACTGAAAAGTTGTTTTCAGAAGTGGATGGGTTGAATTTCTGCACGTAGAAGCAAAAGGC [A24T A31G]	0.00616
GAGACCGCAACTGAAAAGTTGTTGTCAGAAATGAATGGGTTGAATTTCTGCACGTAGAAGCAAAAGGC [A24G G34A]	0.00498
GAGACCGCAACTGAAAAGTTGTTGTCAGAAATGTATGGGTTGAATTTCTGCACGTAGAAGCAAAAGGC [A24G G34T]	0.000849

Variant	fraction ligated
GAGACCGCAACTGAAAAGTTGTTGTCAGAAATGCATGGGTTGAATTTCTGCACGTAGAAGCAAAAGGC [A24G G34C]	0.00145
GAGACCGCAACTGAAAAGTTGTTGTCAGATATGGATGGGTTGAATTTCTGCACGTAGAAGCAAAAGGC [A24G A30T]	0.058
GAGACCGCAACTGAAAAGTTGTTGTCAGAGATGGATGGGTTGAATTTCTGCACGTAGAAGCAAAAGGC [A24G A30G]	0.185
GAGACCGCAACTGAAAAGTTGTTGTCAGACATGGATGGGTTGAATTTCTGCACGTAGAAGCAAAAGGC [A24G A30C]	0.0534
GAGACCGCAACTGAAAAGTTGTTGTCAGAAATGGCTGGGTTGAATTTCTGCACGTAGAAGCAAAAGGC [A24G A35C]	0.0163
GAGACCGCAACTGAAAAGTTGTTGTCAGAAATGGGTGGGTTGAATTTCTGCACGTAGAAGCAAAAGGC [A24G A35G]	0.0312
GAGACCGCAACTGAAAAGTTGTTGTCAGAAATGGTTGGGTTGAATTTCTGCACGTAGAAGCAAAAGGC [A24G A35T]	0.00297
GAGACCGCAACTGAAAAGTTGTTTTCTGAAATGGATGGGTTGAATTTCTGCACGTAGAAGCAAAAGGC [A24T A27T]	0.171
GAGACCGCAACTGAAAAGTTGTTTTCGGAAATGGATGGGTTGAATTTCTGCACGTAGAAGCAAAAGGC [A24T A27G]	0.0839
GAGACCGCAACTGAAAAGTTGTTTTCCGAAATGGATGGGTTGAATTTCTGCACGTAGAAGCAAAAGGC [A24T A27C]	0.105
GAGACCGCAACTGAAAAGTTGTTTTCAGAAATGGGTGGGTTGAATTTCTGCACGTAGAAGCAAAAGGC [A24T A35G]	0.00268
GAGACCGCAACTGAAAAGTTGTTTTCAGAAATGGCTGGGTTGAATTTCTGCACGTAGAAGCAAAAGGC [A24T A35C]	0.0024
GAGACCGCAACTGAAAAGTTGTTTTCAGAAATGGTTGGGTTGAATTTCTGCACGTAGAAGCAAAAGGC [A24T A35T]	0.00183
GAGACCGCAACTGAAAAGTTGTTGTCAGAAATCGATGGGTTGAATTTCTGCACGTAGAAGCAAAAGGC [A24G G33C]	0.0566
GAGACCGCAACTGAAAAGTTGTTGTCAGAAATAGATGGGTTGAATTTCTGCACGTAGAAGCAAAAGGC [A24G G33A]	0.294
GAGACCGCAACTGAAAAGTTGTTGTCAGAAATTGATGGGTTGAATTTCTGCACGTAGAAGCAAAAGGC [A24G G33T]	0.0804
GAGACCGCAACTGAAAAGTTGTTTTCAGAAATTGATGGGTTGAATTTCTGCACGTAGAAGCAAAAGGC [A24T G33T]	0.0124
GAGACCGCAACTGAAAAGTTGTTTTCAGAAATAGATGGGTTGAATTTCTGCACGTAGAAGCAAAAGGC [A24T G33A]	0.0223
GAGACCGCAACTGAAAAGTTGTTTTCAGAAATCGATGGGTTGAATTTCTGCACGTAGAAGCAAAAGGC [A24T G33C]	0.00781
GAGACCGCAACTGAAAAGTTGTTGCCAGAAATGGATGGGTTGAATTTCTGCACGTAGAAGCAAAAGGC [A24G T25C]	0.01
GAGACCGCAACTGAAAAGTTGTTGGCAGAAATGGATGGGTTGAATTTCTGCACGTAGAAGCAAAAGGC [A24G T25G]	0.00212
GAGACCGCAACTGAAAAGTTGTTGACAGAAATGGATGGGTTGAATTTCTGCACGTAGAAGCAAAAGGC [A24G T25A]	0.00617
GAGACCGCAACTGAAAAGTTGTTGTAAGAAATGGATGGGTTGAATTTCTGCACGTAGAAGCAAAAGGC [A24G C26A]	0.0171
GAGACCGCAACTGAAAAGTTGTTGTTAGAAATGGATGGGTTGAATTTCTGCACGTAGAAGCAAAAGGC [A24G C26T]	0.00563
GAGACCGCAACTGAAAAGTTGTTGTGAGAAATGGATGGGTTGAATTTCTGCACGTAGAAGCAAAAGGC [A24G C26G]	0.00544
GAGACCGCAACTGAAAAGTTGTTTTCAGATATGGATGGGTTGAATTTCTGCACGTAGAAGCAAAAGGC [A24T A30T]	0.00805
GAGACCGCAACTGAAAAGTTGTTTTCAGACATGGATGGGTTGAATTTCTGCACGTAGAAGCAAAAGGC [A24T A30C]	0.00942

Variant	fraction ligated
GAGACCGCAACTGAAAAGTTGTTTTCAGAGATGGATGGGTTGAATTTCTGCACGTAGAAGCAAAAGGC [A24T A30G]	0.0104
GAGACCGCAACTGAAAAGTTGTTTTCAGAAATGGATGGGTTGTATTTCTGCACGTAGAAGCAAAAGGC [A24T A43T]	0.00827
GAGACCGCAACTGAAAAGTTGTTTTCAGAAATGGATGGGTTGGATTTCTGCACGTAGAAGCAAAAGGC [A24T A43G]	0.00117
GAGACCGCAACTGAAAAGTTGTTTTCAGAAATGGATGGGTTGCATTTCTGCACGTAGAAGCAAAAGGC [A24T A43C]	0.00315
GAGACCGCAACTGAAAAGTTGTTTTCAGAAATGGATCGGTTGAATTTCTGCACGTAGAAGCAAAAGGC [A24T G37C]	0.00436
GAGACCGCAACTGAAAAGTTGTTTTCAGAAATGGATAGGTTGAATTTCTGCACGTAGAAGCAAAAGGC [A24T G37A]	0.00164
GAGACCGCAACTGAAAAGTTGTTGTCAGAAATGGACGGGTTGAATTTCTGCACGTAGAAGCAAAAGGC [A24G T36C]	0.0933
GAGACCGCAACTGAAAAGTTGTTGTCAGAAATGGAGGGGTTGAATTTCTGCACGTAGAAGCAAAAGGC [A24G T36G]	0.00746
GAGACCGCAACTGAAAAGTTGTTGTCAGAAATGGAAGGGTTGAATTTCTGCACGTAGAAGCAAAAGGC [A24G T36A]	0.0103
GAGACCGCAACTGAAAAGTTGTTGTCAGAAATGGATGGGTTGCATTTCTGCACGTAGAAGCAAAAGGC [A24G A43C]	0.0035
GAGACCGCAACTGAAAAGTTGTTGTCAGAAATGGATGGGTTGTATTTCTGCACGTAGAAGCAAAAGGC [A24G A43T]	0.00328
GAGACCGCAACTGAAAAGTTGTTGTCAGAAATGGATGGGTTGGATTTCTGCACGTAGAAGCAAAAGGC [A24G A43G]	0.00288
GAGACCGCAACTGAAAAGTTGTTGTCAGAAGTGGATGGGTTGAATTTCTGCACGTAGAAGCAAAAGGC [A24G A31G]	0.0578
GAGACCGCAACTGAAAAGTTGTTGTCAGAACTGGATGGGTTGAATTTCTGCACGTAGAAGCAAAAGGC [A24G A31C]	0.0105
GAGACCGCAACTGAAAAGTTGTTGTCAGAATTGGATGGGTTGAATTTCTGCACGTAGAAGCAAAAGGC [A24G A31T]	0.0427
GAGACCGCAACTGAAAAGTTGTTTTCAGAAATGGATGGGTTGACTTTCTGCACGTAGAAGCAAAAGGC [A24T A44C]	0.00276
GAGACCGCAACTGAAAAGTTGTTTTCAGAAATGGATGGGTTGATTTTCTGCACGTAGAAGCAAAAGGC [A24T A44T]	0.00772
GAGACCGCAACTGAAAAGTTGTTTTCAGAAATGGATGGGTTGAGTTTCTGCACGTAGAAGCAAAAGGC [A24T A44G]	0.0057
GAGACCGCAACTGAAAAGTTGTTGTCAGAAATGGATGGGTTAAATTTCTGCACGTAGAAGCAAAAGGC [A24G G42A]	0.00347
GAGACCGCAACTGAAAAGTTGTTGTCAGAAATGGATGGGTTCAATTTCTGCACGTAGAAGCAAAAGGC [A24G G42C]	0.00119
GAGACCGCAACTGAAAAGTTGTTGTCAGAAATGGATGGGTTTAATTTCTGCACGTAGAAGCAAAAGGC [A24G G42T]	0.000969
GAGACCGCAACTGAAAAGTTGTTGTCATAAATGGATGGGTTGAATTTCTGCACGTAGAAGCAAAAGGC [A24G G28T]	0.254
GAGACCGCAACTGAAAAGTTGTTGTCACAAATGGATGGGTTGAATTTCTGCACGTAGAAGCAAAAGGC [A24G G28C]	0.065
GAGACCGCAACTGAAAAGTTGTTGTCAAAAATGGATGGGTTGAATTTCTGCACGTAGAAGCAAAAGGC [A24G G28A]	0.043
GAGACCGCAACTGAAAAGTTGTTTTCAGAAATGGATGGGTTGAATTTCTGCACGTAGAAGCAAAAGGC [A24T]	0.011
